Source: US20260274980A1 (BIOARCTIC, published 2026)
Values belong to the binder of their own block, whether it stands above or below them.

Target: T1, human transferrin receptor 1 (hTfR1) on cell surfaces (human, UniProt P02786 1-760)
T1 construct: Endogenous receptor on hCMEC/D3, THP-1, K562 and Ramos cells; also called CD71; endogenous hTfR1
Experiment: flow cytometry on Ramos cells (hTfR1 on the surface), Fc receptors blocked, overnight at 4 °C, detection with anti-human IgG-Alexa Fluor 488
Description: Binding to hTfR1 on cells was measured on the immortalized human B lymphocyte cell line Ramos (Sigma, cat: 85030802). This cell line is known for expressing high levels of hTfR1 on the cell surface. Fcγ receptors were blocked using Fc receptor blocker (Innovex biosciences, #NB309-4X-40) for 30 min at 4° C., after which the cells were washed in PBS. The cells were seeded in a 96 well V bottom plate (#249570, Thermo Scientific Nunc), and serially diluted Gen 2A constructs were added and the plate was incubated at 4° C. overnight. The cells were washed with PBS with 1% BSA and then fixed with freshly prepared 4% formaldehyde (Thermo Scientific Pierce, #28906) diluted in PBS for 15 min at room temperature. The cells were washed with PBS containing 1% BSA, and then stained. […] Staining was carried out for 30 min at 4° C. After incubation with the detection reagent, cells were washed with PBS containing 1% BSA. The cells were finally resuspended in 200 μl PBS with 1% BSA and acquired using a BD FACSLyric flow cytometer system (BD Biosciences). Samples were analyzed using flowJo software (BD Biosciences).

T1 sequence (P02786 whole entry): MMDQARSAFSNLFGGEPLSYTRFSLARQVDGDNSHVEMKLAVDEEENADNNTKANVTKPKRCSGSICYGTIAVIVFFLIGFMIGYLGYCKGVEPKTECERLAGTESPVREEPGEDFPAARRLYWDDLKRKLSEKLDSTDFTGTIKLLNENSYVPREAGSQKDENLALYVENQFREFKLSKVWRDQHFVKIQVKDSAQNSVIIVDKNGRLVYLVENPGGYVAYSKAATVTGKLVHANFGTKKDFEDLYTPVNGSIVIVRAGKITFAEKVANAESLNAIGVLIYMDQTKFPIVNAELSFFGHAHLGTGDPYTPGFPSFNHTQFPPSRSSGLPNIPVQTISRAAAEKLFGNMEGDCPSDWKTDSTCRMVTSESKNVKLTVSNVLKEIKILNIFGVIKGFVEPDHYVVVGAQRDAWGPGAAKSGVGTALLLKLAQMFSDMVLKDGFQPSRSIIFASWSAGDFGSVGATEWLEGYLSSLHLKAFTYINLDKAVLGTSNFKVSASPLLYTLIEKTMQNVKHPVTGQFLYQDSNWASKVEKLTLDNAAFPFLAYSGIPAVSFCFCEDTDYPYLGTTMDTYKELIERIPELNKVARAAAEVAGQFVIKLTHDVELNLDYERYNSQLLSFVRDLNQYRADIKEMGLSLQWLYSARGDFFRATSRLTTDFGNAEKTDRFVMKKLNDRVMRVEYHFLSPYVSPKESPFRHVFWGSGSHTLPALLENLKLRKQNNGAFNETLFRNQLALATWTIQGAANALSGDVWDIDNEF

B1: 2A-3 #10 (bispecific antibody, human IgG1, kappa)
heavy: not shown
chain: DIVMTQAPLSLPVSLGDQASISCRSSQSIVHSNGNTYLEWYLQKPGQSPKLLIYKVSNRFSGVPDRFSGSGSGTDFTLKISRVEAEDLGIYYCFQGSHVPPTFGGGTKLEIKRTVAAPSVFIFPPSDEQLKSGTASVVCLLNNFYPREAKVQWKVDNALQSGNSQESVTEQDSKDSTYSLSSTLTLSKADYEKHKVYACEVTHQGLSSPVTKSFNRGECGGGGSGGGGSGGGGSDIQMTQSPSSVSASVGDRVTITCKSSQSLLYSTNQKNYLAWYQQKPGKAPKLLIYWASTRESGVPSRFSGSGSGTDFTLTISSLQPEDFATYYCQQYFIYPRTFGQGTKVEIKGGGGSGGGGSGGGGSEVQLVQSGAEVKKPGSSVKVSCKASGYIFTDYNMDWVRQAPGQGLEWIGDINPDADTTSYNEKFKGRATLTVDKSTSTAYMELSSLRSEDTAVYYCARGGYSGSSYYHPMDYWGQGTLVTVSSGGGGSGGGGSGGGGSGGGGSDIVMTQAPLSLPVSLGDQASISCRSSQSIVHSNGNTYLEWYLQKPGQSPKLLIYKVSNRFSGVPDRFSGSGSGTDFTLKISRVEAEDLGIYYCFQGSHVPPTFGGGTKLEIKRTVAAPSVFIFPPSDEQLKSGTASVVCLLNNFYPREAKVQWKVDNALQSGNSQESVTEQDSKDSTYSLSSTLTLSKADYEKHKVYACEVTHQGLSSPVTKSFNRGEC
notes: also called Gen 2A construct #10; VL first
binding result: binds

B2: 2A-3 #9 (bispecific antibody, human IgG1, kappa)
heavy: not shown
chain: DIVMTQAPLSLPVSLGDQASISCRSSQSIVHSNGNTYLEWYLQKPGQSPKLLIYKVSNRFSGVPDRFSGSGSGTDFTLKISRVEAEDLGIYYCFQGSHVPPTFGGGTKLEIKRTVAAPSVFIFPPSDEQLKSGTASVVCLLNNFYPREAKVQWKVDNALQSGNSQESVTEQDSKDSTYSLSSTLTLSKADYEKHKVYACEVTHQGLSSPVTKSFNRGECGGGGSGGGGSDIQMTQSPSSVSASVGDRVTITCKSSQSLLYSTNQKNYLAWYQQKPGKAPKLLIYWASTRESGVPSRFSGSGSGTDFTLTISSLQPEDFATYYCQQYFIYPRTFGQGTKVEIKGGGGSGGGGSGGGGSEVQLVQSGAEVKKPGSSVKVSCKASGYIFTDYNMDWVRQAPGQGLEWIGDINPDADTTSYNEKFKGRATLTVDKSTSTAYMELSSLRSEDTAVYYCARGGYSGSSYYHPMDYWGQGTLVTVSSGGGGSGGGGSGGGGSGGGGSDIVMTQAPLSLPVSLGDQASISCRSSQSIVHSNGNTYLEWYLQKPGQSPKLLIYKVSNRFSGVPDRFSGSGSGTDFTLKISRVEAEDLGIYYCFQGSHVPPTFGGGTKLEIKRTVAAPSVFIFPPSDEQLKSGTASVVCLLNNFYPREAKVQWKVDNALQSGNSQESVTEQDSKDSTYSLSSTLTLSKADYEKHKVYACEVTHQGLSSPVTKSFNRGEC
notes: also called Gen 2A construct #9; VL first
binding result: binds

B3: 2A-3 #7 (bispecific antibody, human IgG1, kappa)
heavy: not shown
chain: DIVMTQAPLSLPVSLGDQASISCRSSQSIVHSNGNTYLEWYLQKPGQSPKLLIYKVSNRFSGVPDRFSGSGSGTDFTLKISRVEAEDLGIYYCFQGSHVPPTFGGGTKLEIKRTVAAPSVFIFPPSDEQLKSGTASVVCLLNNFYPREAKVQWKVDNALQSGNSQESVTEQDSKDSTYSLSSTLTLSKADYEKHKVYACEVTHQGLSSPVTKSFNRGECGGGGSGGGGSGGGGSGGGGSGGGGSEVQLVQSGAEVKKPGSSVKVSCKASGYIFTDYNMDWVRQAPGQGLEWIGDINPDADTTSYNEKFKGRATLTVDKSTSTAYMELSSLRSEDTAVYYCARGGYSGSSYYHPMDYWGQGTLVTVSSGGGGSGGGGSGGGGSDIQMTQSPSSVSASVGDRVTITCKSSQSLLYSTNQKNYLAWYQQKPGKAPKLLIYWASTRESGVPSRFSGSGSGTDFTLTISSLQPEDFATYYCQQYFIYPRTFGQGTKVEIKGGGGSGGGGSGGGGSGGGGSGGGGSDIVMTQAPLSLPVSLGDQASISCRSSQSIVHSNGNTYLEWYLQKPGQSPKLLIYKVSNRFSGVPDRFSGSGSGTDFTLKISRVEAEDLGIYYCFQGSHVPPTFGGGTKLEIKRTVAAPSVFIFPPSDEQLKSGTASVVCLLNNFYPREAKVQWKVDNALQSGNSQESVTEQDSKDSTYSLSSTLTLSKADYEKHKVYACEVTHQGLSSPVTKSFNRGEC
notes: also called Gen 2A construct #7; VH first
binding result: binds

B4: 2A-3 #11 (bispecific antibody, human IgG1, kappa)
heavy: not shown
chain: DIVMTQAPLSLPVSLGDQASISCRSSQSIVHSNGNTYLEWYLQKPGQSPKLLIYKVSNRFSGVPDRFSGSGSGTDFTLKISRVEAEDLGIYYCFQGSHVPPTFGGGTKLEIKRTVAAPSVFIFPPSDEQLKSGTASVVCLLNNFYPREAKVQWKVDNALQSGNSQESVTEQDSKDSTYSLSSTLTLSKADYEKHKVYACEVTHQGLSSPVTKSFNRGECGGGGSDIQMTQSPSSVSASVGDRVTITCKSSQSLLYSTNQKNYLAWYQQKPGKAPKLLIYWASTRESGVPSRFSGSGSGTDFTLTISSLQPEDFATYYCQQYFIYPRTFGQGTKVEIKGGGGSGGGGSGGGGSEVQLVQSGAEVKKPGSSVKVSCKASGYIFTDYNMDWVRQAPGQGLEWIGDINPDADTTSYNEKFKGRATLTVDKSTSTAYMELSSLRSEDTAVYYCARGGYSGSSYYHPMDYWGQGTLVTVSSGGGGSGGGGSGGGGSGGGGSGGGGSDIVMTQAPLSLPVSLGDQASISCRSSQSIVHSNGNTYLEWYLQKPGQSPKLLIYKVSNRFSGVPDRFSGSGSGTDFTLKISRVEAEDLGIYYCFQGSHVPPTFGGGTKLEIKRTVAAPSVFIFPPSDEQLKSGTASVVCLLNNFYPREAKVQWKVDNALQSGNSQESVTEQDSKDSTYSLSSTLTLSKADYEKHKVYACEVTHQGLSSPVTKSFNRGEC
notes: also called Gen 2A construct #11; VL first
binding result: binds

B6: 2A-3 #4 (bispecific antibody, human IgG1, kappa)
heavy: not shown
chain: DIVMTQAPLSLPVSLGDQASISCRSSQSIVHSNGNTYLEWYLQKPGQSPKLLIYKVSNRFSGVPDRFSGSGSGTDFTLKISRVEAEDLGIYYCFQGSHVPPTFGGGTKLEIKRTVAAPSVFIFPPSDEQLKSGTASVVCLLNNFYPREAKVQWKVDNALQSGNSQESVTEQDSKDSTYSLSSTLTLSKADYEKHKVYACEVTHQGLSSPVTKSFNRGECGGGGSEVQLVQSGAEVKKPGSSVKVSCKASGYIFTDYNMDWVRQAPGQGLEWIGDINPDADTTSYNEKFKGRATLTVDKSTSTAYMELSSLRSEDTAVYYCARGGYSGSSYYHPMDYWGQGTLVTVSSGGGGSGGGGSGGGGSDIQMTQSPSSVSASVGDRVTITCKSSQSLLYSTNQKNYLAWYQQKPGKAPKLLIYWASTRESGVPSRFSGSGSGTDFTLTISSLQPEDFATYYCQQYFIYPRTFGQGTKVEIKGGGGSGGGGSGGGGSGGGGSGGGGSDIVMTQAPLSLPVSLGDQASISCRSSQSIVHSNGNTYLEWYLQKPGQSPKLLIYKVSNRFSGVPDRFSGSGSGTDFTLKISRVEAEDLGIYYCFQGSHVPPTFGGGTKLEIKRTVAAPSVFIFPPSDEQLKSGTASVVCLLNNFYPREAKVQWKVDNALQSGNSQESVTEQDSKDSTYSLSSTLTLSKADYEKHKVYACEVTHQGLSSPVTKSFNRGEC
notes: also called Gen 2A construct #4; VH first
binding result: binds

Further lines, results first:

binding result: binds
B5: 2A-3 #2 (bispecific antibody, human IgG1, kappa)
heavy: not shown
chain: DIVMTQAPLSLPVSLGDQASISCRSSQSIVHSNGNTYLEWYLQKPGQSPKLLIYKVSNRFSGVPDRFSGSGSGTDFTLKISRVEAEDLGIYYCFQGSHVPPTFGGGTKLEIKRTVAAPSVFIFPPSDEQLKSGTASVVCLLNNFYPREAKVQWKVDNALQSGNSQESVTEQDSKDSTYSLSSTLTLSKADYEKHKVYACEVTHQGLSSPVTKSFNRGECGGGGSGGGGSEVQLVQSGAEVKKPGSSVKVSCKASGYIFTDYNMDWVRQAPGQGLEWIGDINPDADTTSYNEKFKGRATLTVDKSTSTAYMELSSLRSEDTAVYYCARGGYSGSSYYHPMDYWGQGTLVTVSSGGGGSGGGGSGGGGSDIQMTQSPSSVSASVGDRVTITCKSSQSLLYSTNQKNYLAWYQQKPGKAPKLLIYWASTRESGVPSRFSGSGSGTDFTLTISSLQPEDFATYYCQQYFIYPRTFGQGTKVEIKGGGGSGGGGSGGGGSGGGGSDIVMTQAPLSLPVSLGDQASISCRSSQSIVHSNGNTYLEWYLQKPGQSPKLLIYKVSNRFSGVPDRFSGSGSGTDFTLKISRVEAEDLGIYYCFQGSHVPPTFGGGTKLEIKRTVAAPSVFIFPPSDEQLKSGTASVVCLLNNFYPREAKVQWKVDNALQSGNSQESVTEQDSKDSTYSLSSTLTLSKADYEKHKVYACEVTHQGLSSPVTKSFNRGEC
notes: also called Gen 2A construct #2; VH first

binding result: binds
B7: 2A-3 #1 (bispecific antibody, human IgG1, kappa)
heavy: not shown
chain: DIVMTQAPLSLPVSLGDQASISCRSSQSIVHSNGNTYLEWYLQKPGQSPKLLIYKVSNRFSGVPDRFSGSGSGTDFTLKISRVEAEDLGIYYCFQGSHVPPTFGGGTKLEIKRTVAAPSVFIFPPSDEQLKSGTASVVCLLNNFYPREAKVQWKVDNALQSGNSQESVTEQDSKDSTYSLSSTLTLSKADYEKHKVYACEVTHQGLSSPVTKSFNRGECGGGGSEVQLVQSGAEVKKPGSSVKVSCKASGYIFTDYNMDWVRQAPGQGLEWIGDINPDADTTSYNEKFKGRATLTVDKSTSTAYMELSSLRSEDTAVYYCARGGYSGSSYYHPMDYWGQGTLVTVSSGGGGSGGGGSGGGGSDIQMTQSPSSVSASVGDRVTITCKSSQSLLYSTNQKNYLAWYQQKPGKAPKLLIYWASTRESGVPSRFSGSGSGTDFTLTISSLQPEDFATYYCQQYFIYPRTFGQGTKVEIKGGGGSGGGGSGGGGSGGGGSDIVMTQAPLSLPVSLGDQASISCRSSQSIVHSNGNTYLEWYLQKPGQSPKLLIYKVSNRFSGVPDRFSGSGSGTDFTLKISRVEAEDLGIYYCFQGSHVPPTFGGGTKLEIKRTVAAPSVFIFPPSDEQLKSGTASVVCLLNNFYPREAKVQWKVDNALQSGNSQESVTEQDSKDSTYSLSSTLTLSKADYEKHKVYACEVTHQGLSSPVTKSFNRGEC
notes: also called Gen 2A construct #1; VH first
